This test has as its target acyl-carrier-protein synthase (AcpS) from Staphylococcus aureus (Staphylococcus aureus). In words: crystal structure.

The substance “acyl-carrier-protein synthase (AcpS) from Staphylococcus aureus (enzyme)” displayed a stoichiometry N of 3.

One may read the stoichiometry N as the number of molecules, sites or subunits per partner or assembly.
